Measured values as given in patent US20200377613A1.

Biological target: survivin peptide coating antigen, not stated which (SEQ ID NO:4 or SEQ ID NO:27)
Test: indirect ELISA; coating peptide not stated

B1: mAb 2C2E7 (antibody, IgG2b, V domains shown)
VH: QIQLVQSGPELKKPGETVKISCKASGYTFTTYGMSWVKQAPGRGLKWMGWINPYSGVPTYAVDFKGRFAFSLETSASTAYLQINNLKNEDTATYFCARGGRRGDFGYWGQGTTLTVSS
VL: QIGLTQSPAIMSASPGEKVTMTCSASSSISYMHWYQQKPGTSPKTWIYDTSKLASGVPARFSGSGSGTSYSLTISSMEAEDAATYYCHQRSSHHTFGGGTKLEIK
- titer (highest dilution with signal to blank ratio >2:1) (dilution (1:x)): 512000

B2: mAb 30H3D2 (antibody, IgG1, V domains shown)
VH: EVQLVESGGDLVKPGGSLKLSCAASGFTFSSYGMSWVRLTPDKRLEWVATISSGGSHTYYPDSVRGRFTISRDNAKNTLYLQMSSLKSEDTAMYYCARHPIYYYISSYAMDYWGQGTSVTVSS
VL: DVVMTQTPLSLPVSLGDQASISCRSSQSLVHSTGNTYLHWYLQKPGQSPKLLIYKVSNRFSGVPDRFGGSGSGTDFTLKISRVEAEDLGVYFCSQSTHVPPTFGGGTKLEIK
- titer (highest dilution with signal to blank ratio >2:1) (dilution (1:x)): 512000
